Laboratory results published in article PMC10602865, “Cleavage kinetics of human mitochondrial RNase P and contribution of its non-nuclease subunits”.

B1: pre-tRNAVal, 3'-biotinylated (structured_RNA)
RNA: UGCACUUGGACGAACCAGAGUGUAGCUUAACACAAAGCACCCAACUUACACUUAGGAGAUUUCAACUUAACUUGACCGCUCUGAGCUAAACCUAGCCCCAAACCCACUCCACCUUA
modifications: splint ligation of synthetic RNA (15 nt 5' flank + tRNA nt 1-8) to transcript of 1610-1702; 3' pCp-biotin adds a C
B2: pre-tRNALys, 3'-biotinylated (structured_RNA)
RNA: ACCCCCUCUAGAGCCCACUGUAAAGCUAACUUAGCAUUAACCUUUUAAGUUAAAGAUUAAGAGAACCAACACCUCUUUACAGUGAAAUGCCCCAAC
modifications: splint ligation of synthetic RNA (15 nt 5' flank + tRNA nt 1-8) to transcript of 8303-8375; 3' pCp-biotin adds a C

What was measured:
TRMT10C (MRPP1) [1] = target: T1, TRMT10C (MRPP1) (Homo sapiens, UniProt Q7L0Y3 40-403); assay: BLI; no Mg2+; BLI (BLItz, streptavidin sensors): 50 mM Tris-Cl pH 8, 20 mM NaCl, 2 mM DTT, 20 ug/ml BSA, 0.5 U/ul RNase inhibitor, 0.05% Tween-20, with (Lys) or without 4.5 mM MgCl2, 21 C; conditions: protein: recombinant; tags: C-terminal myc-His6; chain copies: 2; label: 3' biotin (pCp-biotin); tRNA cloverleaf
T1 sequence: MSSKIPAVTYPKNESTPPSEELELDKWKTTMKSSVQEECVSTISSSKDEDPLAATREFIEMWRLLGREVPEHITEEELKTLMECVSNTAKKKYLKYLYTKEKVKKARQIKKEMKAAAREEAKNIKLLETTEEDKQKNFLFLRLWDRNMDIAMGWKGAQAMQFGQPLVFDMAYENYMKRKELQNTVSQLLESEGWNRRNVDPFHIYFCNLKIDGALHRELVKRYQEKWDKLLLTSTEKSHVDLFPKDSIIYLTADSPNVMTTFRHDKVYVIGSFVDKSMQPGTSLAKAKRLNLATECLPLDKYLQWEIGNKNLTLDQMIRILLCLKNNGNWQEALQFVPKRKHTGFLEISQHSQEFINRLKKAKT

PRORP (MRPP3) [2] = target: T2, PRORP (MRPP3) (Homo sapiens, UniProt O15091 46-583); assay: as above; conditions: protein: recombinant; tags: C-terminal His6; label: 3' biotin (pCp-biotin); tRNA cloverleaf
T2 sequence: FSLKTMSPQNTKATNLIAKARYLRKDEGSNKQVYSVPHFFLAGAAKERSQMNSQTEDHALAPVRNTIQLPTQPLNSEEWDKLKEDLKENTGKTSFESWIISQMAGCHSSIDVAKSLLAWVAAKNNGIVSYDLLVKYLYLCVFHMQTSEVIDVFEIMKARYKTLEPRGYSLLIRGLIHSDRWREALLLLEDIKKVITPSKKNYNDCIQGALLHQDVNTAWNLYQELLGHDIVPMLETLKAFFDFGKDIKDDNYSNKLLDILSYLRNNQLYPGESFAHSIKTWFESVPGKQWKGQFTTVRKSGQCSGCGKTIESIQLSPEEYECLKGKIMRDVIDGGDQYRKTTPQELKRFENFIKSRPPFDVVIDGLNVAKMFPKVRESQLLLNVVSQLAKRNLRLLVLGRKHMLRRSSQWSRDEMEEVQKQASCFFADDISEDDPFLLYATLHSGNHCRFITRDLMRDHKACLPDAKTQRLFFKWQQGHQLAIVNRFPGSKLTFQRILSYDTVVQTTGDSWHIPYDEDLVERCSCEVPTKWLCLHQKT

[3] = target: T3, TRMT10C (MRPP1);SDR5C1 (MRPP2, HSD17B10) (Homo sapiens;Homo sapiens, UniProt Q7L0Y3;Q99714 40-403;1-261, |); assay: as above; conditions: protein: recombinant;recombinant; tags: C-terminal myc-His6;N-terminal His6; copies: 1;4; label: 3' biotin (pCp-biotin); tRNA cloverleaf
T3 sequence 1: T1 sequence
T3 sequence 2: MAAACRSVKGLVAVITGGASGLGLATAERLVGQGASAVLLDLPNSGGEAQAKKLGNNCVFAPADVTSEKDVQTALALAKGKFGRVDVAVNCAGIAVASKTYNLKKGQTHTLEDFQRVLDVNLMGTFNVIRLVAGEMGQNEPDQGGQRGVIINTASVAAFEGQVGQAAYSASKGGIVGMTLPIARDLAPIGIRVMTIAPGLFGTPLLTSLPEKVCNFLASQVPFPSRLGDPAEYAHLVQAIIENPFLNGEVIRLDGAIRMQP

SDR5C1 (MRPP2, HSD17B10) [4] = target: T4, SDR5C1 (MRPP2, HSD17B10) (Homo sapiens, UniProt Q99714 1-261); assay: BLI; no Mg2+; up to 1 uM SDR5C1; BLI (BLItz, streptavidin sensors): 50 mM Tris-Cl pH 8, 20 mM NaCl, 2 mM DTT, 20 ug/ml BSA, 0.5 U/ul RNase inhibitor, 0.05% Tween-20, with (Lys) or without 4.5 mM MgCl2, 21 C; conditions: protein: recombinant; tags: N-terminal His6; chain copies: 4; label: 3' biotin (pCp-biotin); tRNA cloverleaf
T4 sequence: T3 sequence 2

TRMT10C (MRPP1) [5] = target: T1, TRMT10C (MRPP1); assay: BLI; 4.5 mM Mg2+; BLI (BLItz, streptavidin sensors): 50 mM Tris-Cl pH 8, 20 mM NaCl, 2 mM DTT, 20 ug/ml BSA, 0.5 U/ul RNase inhibitor, 0.05% Tween-20, with (Lys) or without 4.5 mM MgCl2, 21 C; conditions: protein: recombinant; tags: C-terminal myc-His6; chain copies: 2; label: 3' biotin (pCp-biotin); tRNA cloverleaf
PRORP (MRPP3) [6] = target: T2, PRORP (MRPP3); assay: as above; conditions: protein: recombinant; tags: C-terminal His6; label: 3' biotin (pCp-biotin); tRNA cloverleaf
[7] = target: T3, TRMT10C (MRPP1);SDR5C1 (MRPP2, HSD17B10); assay: as above; conditions: protein: recombinant;recombinant; tags: C-terminal myc-His6;N-terminal His6; copies: 1;4; label: 3' biotin (pCp-biotin); tRNA cloverleaf
SDR5C1 (MRPP2, HSD17B10) [8] = target: T4, SDR5C1 (MRPP2, HSD17B10); assay: BLI; 4.5 mM Mg2+; up to 1 uM SDR5C1; BLI (BLItz, streptavidin sensors): 50 mM Tris-Cl pH 8, 20 mM NaCl, 2 mM DTT, 20 ug/ml BSA, 0.5 U/ul RNase inhibitor, 0.05% Tween-20, with (Lys) or without 4.5 mM MgCl2, 21 C; conditions: protein: recombinant; tags: N-terminal His6; chain copies: 4; label: 3' biotin (pCp-biotin); tRNA cloverleaf

Row | Binder | Kd (TRMT10C (MRPP1) [1]) [nM] | Kd (PRORP (MRPP3) [2]) [nM] | Kd [3] [nM] | binding result (SDR5C1 (MRPP2, HSD17B10) [4]) | Kd (TRMT10C (MRPP1) [5]) [nM] | Kd (PRORP (MRPP3) [6]) [nM] | Kd [7] [nM] | binding result (SDR5C1 (MRPP2, HSD17B10) [8])
1 | B1 | 20 | 18 | 13 | no binding | – | – | – | –
2 | B2 | – | – | – | – | 30 | 26 | 4 | no binding
